Consider one molecule from patent publication US5593867, “Fluorerscence polarization detection of nucleic acid amplication” (Becton, Dickinson and Company).

The target in one data set is EcoRI (Gln 111) (UniProt P00642 P00642:2-277, Gln111 (cleavage-deficient; parent residue not stated)). Kind of data set: FP; no enhancement of FP change without recognition site; EDTA buffer, 37 C. The following applies: chain copies: 2.
The next data set addresses EcoRI (UniProt P00642 P00642:2-277). Described as above. The conditions noted are these: tags: New England BioLabs; chain copies: 2.

B1: SEQ7/SEQ9 duplex lacking EcoRI site (dsDNA)
DNA 1: ATCCGTATGGTGGATAACGTCTTTCA
DNA 2: TGAAAGACGTTATCCACCATACGGAT
Consider B1, for which the binding result with EcoRI (Gln 111) and with EcoRI was “no binding” each time.
